# According to paper PMC11452665:
# Biological target: mink ryanodine receptor type 3 (RyR3) (mink)
# Test: cryo-EM structure
substance,measurement,value
mink ryanodine receptor type 3 (RyR3) (natural protein),stoichiometry N,4
